Results taken from the nanobody polyreactivity screen of Harvey et al. (2022).

assay: yeast display, Sf9 membrane polyspecificity reagent, FACS + sequencing; frameworks hold sequencing errors
Procedure, shortened: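 A nanobody's polyreactivity label depends on the gate it was sorted from. Yeast display cells were stained with 10% biotinylated, detergent-solubilized Sf9 membrane reagent for 1 hour at 4 °C, enriched on streptavidin microbeads and sorted by FACS. The low and high (top ~1%) gates were set on anti-HA fluorescence for expression and streptavidin fluorescence for reagent binding.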

Sequence | polyreactivity (PSR sort gate)
QVQLVESGGGLVQAGGSLRLSCAASGFIFYKYTMGWYRQAPGKERELVAAISTSGGRTYYADSVKGRFTISRDNAKNTVYLQMNSLKPEDTAVYYCAAQYSYPYYKVTLYYWGQGTQVTVSS | high polyreactivity
QVQLVESGGGLVQAGGSLRLSCAASGFIFYLYARGWYRQAPGKERELVAAITRRGGSTYYADSVKGRFTISRDIAKNTFYLQMNSLKPEDTAVYYCAADHYGFFSAGDFDYWGQGTQVTVSS | high polyreactivity
QVQLVESGGGLVQAGGSLRLSCAASGFIFYLYTMGWYRQAPGTEMEVVAAITQSGTRTYYADSVKGRFTISRDNAKNTVYLQMNSLKPVDTAVYYCAAEWGSSYRWGMDYWGQGTQVTVSS | high polyreactivity
QVQLVESGGGLVQAGGSLRLSCAASGFIFYNYAMGWYRQAPGKERELVAAITGGGSTNYADSVKGRFTISRDNAKNTVYLQMNSLKPEDTAVYYCAAEEGPPWSRYDYWGQGTQVTVSS | low polyreactivity
QVQLVESGGGLVQAGGSLRLSCAASGFIFYPYAMGWYRQAPGKERELVASIYSGGRTYYADSVKGRFTISRDNAKHTVYLQMNSLKPEDTAVYYCNARSRYFGYDYWGQGTQVTVSS | high polyreactivity
QVQLVESGGGLVQAGGSLRLSCAASGFIFYPYAMGWYRQAPGKERELVASIYSGGRTYYADSVKGRFTISRDNAKNTVYLQMNSLKPEDTAVYYCNARSRYFGYDYWGQGTQVTVSS | high polyreactivity
QVQLVESGGGLVQAGGSLRLSCAASGFIFYPYAMGWYRQAPGKERELVAVITSGGRTYYADSVKGRFTISRDNAKNTVYLQMNSLKPEDTAVYYCAARYGSIHWKANWPEYGYWGQGTQVTVSS | low polyreactivity
QVQLVESGGGLVQAGGSLRLSCAASGFIFYPYAMGWYRQATGKETELVAAITWSGGTTTYADSEKGRFTISRDNAKNTVYLQMNSLKPEDTAVYSCAALWYYGRYPYDYWGQGTQVTVSS | high polyreactivity
QVQLVESGGGLVQAGGSLRLSCAASGFIFYQYAMGWYRQAPGKERELVAAISRSGGSTYYADSVKGRFTISRDNAKNTVYLQMNSLKPEDTAVYYCNAVYRSIRPRYDYWGQGTQVTVSS | high polyreactivity
QVQLVESGGGLVQAGGSLRLSCAASGFIFYRNAMGWYRQAPGKERELVAAISQRGGRTYADSVKGRFTISRDNAKNTVYLQMNSLKPEDTAFYYCAADGARLSQTTRRFDYWGQGTQVTVSS | low polyreactivity
QVQLVESGGGLVQAGGSLRLSCAASGFIFYRNTMGWYRQAPGKERELVAANSVSGGSTNYADSVKGRFTISRDNAKNTVYLQMNSLKPEDSAVYYCAARVRDSLVYGGWDDYWGQGTQVTVSS | high polyreactivity
QVQLVESGGGLVQAGGSLRLSCAASGFIFYRYAKGWYRQPPGKERELVAAITKSGTSTYYADSVKGRFTISRDNAKNTVYLQMNSLKPEDTAVYYCNADVRSRSRGSSGYDYWGQGTQVTVSS | low polyreactivity
QVQLVESGGGLVQAGGSLRLSCAASGFIFYRYAMGWYRPAPGKERELVAAISRSGGTTYYADSVKGRFTISRDNAKNTVYLQMNSLKPEETAVYYCAAVGTVSRTVGYKYWGQGTQVTVSS | high polyreactivity
QVQLVESGGGLVQAGGSLRLSCAASGFIFYRYAMGWYRQAPGKERELVAAISSSGGSTYYADSVKGRFTISRDNAKNTVYLQMNSLKPEDTAVYYCAAEPSGKRSKFYYWGQGTQVTVSS | high polyreactivity
QVQLVESGGGLVQAGGSLRLSCAASGFIFYRYAMGWYRQAPGKERELVAAITGGGSTYYADSVKGRFTISRDNAKNNFYLQMNSLKPEDTAVYYCAARKRYWFTPYDYWGQGTQVTVSS | high polyreactivity
QVQLVESGGGLVQAGGSLRLSCAASGFIFYRYAMGWYRQAPGKERELVASITRSGGSTYYADSVKGRFTISRDNAKNTVYLQMNCLKPEDTAVYYCAADRYLGTYRYRYDYWGQGTQVTVSS | high polyreactivity
QVQLVESGGGLVQAGGSLRLSCAASGFIFYRYLMGWYRQAPGKERELVAAISRSGDRTYYADSVKGRFTISRDNAKNTVYLQMNSLKPEDTAVYDCAAALYYFSRGYWGQGTQVTVSS | high polyreactivity
QVQLVESGGGLVQAGGSLRLSCAASGFIFYSNAMGSYRQAPGKERELVASITGDGGTTYYADSVKGRFTISRDNAKTTGYLEMNSLKPEDTAVYYCAKDYIYRGYYTDFRYEDYDYWGQGTQVTVSS | low polyreactivity
QVQLVESGGGLVQAGGSLRLSCAASGFIFYSNAMGWYSQAPGKVRELVAAISRGGGSTYYADSVKGRFTISRDNAKNTVYLQMNSLKPEDTAVYYCAKRRLSPQDDYWGQGTQVTLSS | high polyreactivity
QVQLVESGGGLVQAGGSLRLSCAASGFIFYSYTMGWYRQAPGKERELVATISSNGGRTYYADSVKGRFTISRDNAKNTVYLQMNSLKPEDTAVYYCATDVPHGYYWSYGDYYWGQGTQVTVSS | low polyreactivity
QVQLVESGGGLVQAGGSLRLSCAASGFIFYTYTRGWSRQAHGKERELVAAISYSGGRTYSADSVKGRFTISRDNAKNTVYLQMNSLKPEDTAVYYCAARRYYNSVANENNYWGQGTQVTVSS | high polyreactivity
QVQLVESGGGLVQAGGSLRLSCAASGFIFYYAMGWYRPAPGKERELVAGITESDGSTNYADSVKGRFTISRDNAKNTVYLQMNSLKPEDTAVYYCAKDASSLRFDYWGQGTQVTVSS | low polyreactivity

Sequence | polyreactivity (PSR sort gate)
QVQLVESGGGLVQAGGSLRLSCAASGFIFYYAMGWYRQAPVKERELVAAISRGGSTNYADSVKGRFTISRDNAKNTVYLQMNSLKPEDTAVYYCNARVYSSRARWGTYDYWGQGTQVTVSS | high polyreactivity
QVQLVESGGGLVQAGGSLRLSCAASGFIFYYNAMGWYRQAPGKERELVAAISTDGGSTYYADSVKGRFTISRDNAKNTVYLQMNSLNPEDTAVYYCAAKRYKRYDYWGQGTQVTVSS | low polyreactivity
QVQLVESGGGLVQAGGSLRLSCAASGFIFYYNAMGWYRQAPGKERELVAAITRSGGSTFYADSVKGRFTISRDNAKNTVYLQMNSLKPEDTAVYYCAAKGNPYRVPGSSYPKVNYWGQGTQVTVSS | high polyreactivity
QVQLVESGGGLVQAGGSLRLSCAASGFIFYYNAMGWYRQAPGKERELVATIRGSGGSTYYADSVKGRFTISRDNAKNTVYLQMNSLKPEDTAVYYCATTIYGLTSRLYYWGQGTQVTVSS | high polyreactivity
QVQLVESGGGLVQAGGSLRLSCAASGFIFYYNTMGWYRQAPGKERELVAAINSGGSTYYADSVKGRFTISRDNAKNTVYLQMNSLKPEDTAVYYCAKRYAVSSRYYYWGQGTQVTVSS | high polyreactivity
QVQLVESGGGLVQAGGSLRLSCAASGFIFYYNTMVWYRQAPGKERELVASITWSGDTTYYADSVKGRFTISRDNAKNTVYLQMNSLKPEDTAVYYCAAVHYYPYRRYDYWGQGTQVTVSS | low polyreactivity
QVQLVESGGGLVQAGGSLRLSCAASGFIFYYYAMGWYRQAPGKERELVAAISKSGGSTYYADSVKGRFTISRDNAKKTVYLQMNSLIPEDTAVYYCAAVVTTWPYYGFGYWGQGTQVTVSS | high polyreactivity
QVQLVESGGGLVQAGGSLRLSCAASGFIFYYYAMGWYRQAPGKERELVAAISSGDDTTYADSVKGRFTISRDNAKNTVYLKMNSLKPEDTAVYYCNSERSVKQQGPYGYWGQGTQVTVSS | low polyreactivity
QVQLVESGGGLVQAGGSLRLSCAASGFIFYYYAMGWYRQAPGKERELVAAISWSGGSTYYADSVKGRFTISRDNAKNTVYLQMNSLKPEDTAVYDCAVSRDSYGGKGSFLYDYWGQGTQVTVSS | low polyreactivity
QVQLVESGGGLVQAGGSLRLSCAASGFIFYYYAMGWYRQAPGKERELVAGITATGGSTYYEDSVKGRFTISRDNAKNTVYLQMNSLKPEDTAVYYCAAEHGRRATYTWWVIYDYWGQGTQVTVSS | low polyreactivity
QVQLVESGGGLVQAGGSLRLSCAASGFIFYYYAMGWYRQAPGKERELVARISRVGSTYYADSVKGRFTISRDNAKNTVYLQINSLKPEDTAVYYCAKVSIARIKTRYNYWGQATQVTVSS | high polyreactivity
QVQLVESGGGLVQAGGSLRLSCAASGFIGIYAMGWYRQAPGKERELVAAITTSGGRTYYADSVKGRFTISRDNAKNTVYLQMNSLKPEDTAVYYCAADYQAYTAEDKVIVWYDYWGQGTQVTVSS | low polyreactivity
QVQLVESGGGLVQAGGSLRLSCAASGFIGSNTMGWYRQAPGKERELVAAISWSGGSTYYADSVKGRFTISRDNAKNTVYLQMNSLKPEDTAVYYSAARRNSRARRTFGYWGQGTQVTVSS | high polyreactivity
QVQLVESGGGLVQAGGSLRLSCAASGFIIDANTMGWYRQAPGKERELVAAINESGGSTYYADSVKGRFTISRDNAKNTVYLQMNSLKPEDTAVYYCAADPTWDYGWSGYPYYYYWGQGTQVTVSS | high polyreactivity
QVQLVESGGGLVQAGGSLRLSCAASGFIIEVNAMGWYRQAPGKERELVARIDWSGGSTYYADSVKWRFTISRDNAKNTVYLQMNILKPEYTEVYYCNAEWTYADPNEYGYWGQGTLVTVSS | low polyreactivity
QVQLVESGGGLVQAGGSLRLSCAASGFIIFRYAMGWYRQAPGKERELDAAITRSGGSTYYADSVKGRFTISRDNAKNSVYLQMNCLKPEDTAVYYCNASRQCFTYARMDYWGQGTQVTVSS | high polyreactivity
QVQLVESGGGLVQAGGSLRLSCAASGFIIGRNVMGWYRQAPGKERELVAAISYSGGSTYYADSVKGRFTISRDNAKNTVYLQMNSLKPEDTAVYYCNAEAWVSQDWCQWVAYDYWGQGTQVTVSS | high polyreactivity
QVQLVESGGGLVQAGGSLRLSCAASGFIIGWYVMGWYRQAPGKERELVAAITWDSTSTYYADSVKGRFTISRDNAKNTVYLQMNSLKPEDTAVYYCAADRLDRYYYWGEGTQVTVSS | low polyreactivity
QVQLVESGGGLVQAGGSLRLSCAASGFIIKFYAMGWYRPAPGKERELVAAISWRGGSTYYADSVKGRFTISRDIAKNTVYLQMNSLKPEDTAVYYCNKAGKARYWGRYNYWGQGTQVTVSS | high polyreactivity
QVQLVESGGGLVQAGGSLRLSCAASGFIIRRYAMGWYRPAPGKERELVARISFRGGSTYYADSVKGRFTISRDNAKNTVYLQMNSLKPEATAVYYCNRDPLYSKVVDGDYWGHGTQVTVSS | high polyreactivity
QVQLVESGGGLVQAGGSLRLSCAASGFIIRSYAMGWYRQAPVKERELVAAISRGSRTYYADSVKGRFTISRDNAKNTVYLQMNSLKPEDTAVYYCNADPNVPVETFDYWGQGTQVTVSS | high polyreactivity
